From patent publication US20140274782A1, “AFFINITY REAGENTS AND METHODS FOR DETECTION, PURIFICATION, AND PROTEOMIC ANALYSIS OF METHYLATED PROTEINS” (The Board of Trustees of the Leland Stanford Junior …, priority 2013, published 2014) come the findings set out here.

For test [1], the target named is T1, G9a and GLP (Homo sapiens, UniProt Q96KQ7+Q9H9B1).
T1 sequence (Q96KQ7 2-1210 limits assumed): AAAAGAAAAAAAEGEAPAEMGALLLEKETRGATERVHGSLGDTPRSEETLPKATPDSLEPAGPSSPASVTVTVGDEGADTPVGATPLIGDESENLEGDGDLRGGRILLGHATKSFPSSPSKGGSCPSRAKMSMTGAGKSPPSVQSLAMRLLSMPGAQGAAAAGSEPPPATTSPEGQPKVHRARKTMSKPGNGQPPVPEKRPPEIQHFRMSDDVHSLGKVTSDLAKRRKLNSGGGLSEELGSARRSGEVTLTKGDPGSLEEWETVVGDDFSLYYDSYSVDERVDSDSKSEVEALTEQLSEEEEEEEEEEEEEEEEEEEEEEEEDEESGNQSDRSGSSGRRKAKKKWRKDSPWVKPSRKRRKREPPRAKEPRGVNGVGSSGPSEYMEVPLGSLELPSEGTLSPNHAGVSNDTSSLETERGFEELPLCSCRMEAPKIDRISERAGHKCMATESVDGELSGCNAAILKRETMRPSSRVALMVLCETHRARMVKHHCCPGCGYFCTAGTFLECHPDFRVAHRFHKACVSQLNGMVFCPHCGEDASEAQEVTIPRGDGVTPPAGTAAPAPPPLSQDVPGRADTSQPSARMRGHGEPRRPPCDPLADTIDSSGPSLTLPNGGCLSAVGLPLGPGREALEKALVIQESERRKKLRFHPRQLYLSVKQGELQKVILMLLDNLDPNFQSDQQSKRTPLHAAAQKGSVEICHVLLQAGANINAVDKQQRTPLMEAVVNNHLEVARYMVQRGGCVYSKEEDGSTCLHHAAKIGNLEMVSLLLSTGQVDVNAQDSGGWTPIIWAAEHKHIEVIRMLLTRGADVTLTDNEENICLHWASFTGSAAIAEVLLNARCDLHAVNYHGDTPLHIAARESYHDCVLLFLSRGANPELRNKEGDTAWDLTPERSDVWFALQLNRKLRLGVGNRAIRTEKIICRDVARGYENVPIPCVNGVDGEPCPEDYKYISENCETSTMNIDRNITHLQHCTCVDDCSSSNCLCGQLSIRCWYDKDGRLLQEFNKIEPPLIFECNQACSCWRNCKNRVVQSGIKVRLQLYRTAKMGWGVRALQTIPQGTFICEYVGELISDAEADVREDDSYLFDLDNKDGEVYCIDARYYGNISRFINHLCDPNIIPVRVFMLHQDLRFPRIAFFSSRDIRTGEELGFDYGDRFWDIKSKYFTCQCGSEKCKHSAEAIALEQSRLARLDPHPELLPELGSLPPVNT
T1 sequence (Q9H9B1 2-1298 limits assumed): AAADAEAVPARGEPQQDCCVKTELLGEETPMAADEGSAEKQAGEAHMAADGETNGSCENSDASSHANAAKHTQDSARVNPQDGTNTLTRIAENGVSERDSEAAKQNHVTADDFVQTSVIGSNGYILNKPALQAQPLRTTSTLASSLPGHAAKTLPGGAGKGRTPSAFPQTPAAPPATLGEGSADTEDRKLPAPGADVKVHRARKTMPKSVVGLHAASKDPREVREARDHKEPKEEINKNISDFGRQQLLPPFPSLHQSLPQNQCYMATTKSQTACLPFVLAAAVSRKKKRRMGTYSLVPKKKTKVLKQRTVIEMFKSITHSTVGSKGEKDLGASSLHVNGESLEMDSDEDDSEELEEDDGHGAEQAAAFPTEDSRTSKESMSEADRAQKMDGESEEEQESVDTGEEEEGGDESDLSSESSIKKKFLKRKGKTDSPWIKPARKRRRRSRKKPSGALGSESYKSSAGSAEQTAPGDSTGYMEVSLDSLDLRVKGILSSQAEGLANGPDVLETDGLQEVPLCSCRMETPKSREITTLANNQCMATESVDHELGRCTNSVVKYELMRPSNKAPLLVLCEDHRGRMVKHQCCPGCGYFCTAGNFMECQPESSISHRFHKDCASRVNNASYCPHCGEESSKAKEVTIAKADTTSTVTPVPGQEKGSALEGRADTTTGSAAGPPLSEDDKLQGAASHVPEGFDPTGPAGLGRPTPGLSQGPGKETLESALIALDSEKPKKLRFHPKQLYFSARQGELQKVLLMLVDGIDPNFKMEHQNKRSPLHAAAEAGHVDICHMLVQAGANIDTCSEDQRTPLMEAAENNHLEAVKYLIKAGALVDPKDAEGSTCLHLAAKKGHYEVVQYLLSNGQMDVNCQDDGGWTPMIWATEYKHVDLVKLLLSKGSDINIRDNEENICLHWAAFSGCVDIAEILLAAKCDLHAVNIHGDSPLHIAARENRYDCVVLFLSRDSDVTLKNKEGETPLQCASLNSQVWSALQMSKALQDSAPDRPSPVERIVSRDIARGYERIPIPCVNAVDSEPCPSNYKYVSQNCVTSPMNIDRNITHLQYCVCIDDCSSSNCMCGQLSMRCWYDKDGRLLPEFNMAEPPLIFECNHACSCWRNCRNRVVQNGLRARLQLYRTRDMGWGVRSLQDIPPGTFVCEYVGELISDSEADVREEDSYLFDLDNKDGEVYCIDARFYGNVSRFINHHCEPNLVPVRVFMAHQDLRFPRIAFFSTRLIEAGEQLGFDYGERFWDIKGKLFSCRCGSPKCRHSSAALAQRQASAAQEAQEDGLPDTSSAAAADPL
Nature of the test: Triple SILAC pull-down after UNC0638 treatment of 293T cells, DMSO/UNC0638 ratio of protein captured by 3×MBT.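 As to all read-outs here: mass spectrometry (Q-Exactive) SILAC quantitation, DMSO/UNC0638 ratio computed after subtracting 3×MBTD355N mutant pull-down background, only proteins with at least twofold 3×MBT over mutant signal considered.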 In kind it is cell-based. On the set-up: cells were treated for 24 hours with UNC0638 at 2.5 μM or DMSO vehicle control; endogenous in cells; host or cells: HEK 293T. As to conditions: for Relative to UNC0638 UNC Heavy / Relative to UNC0638 UNC Light: SILAC ratio DMSO/UNC0638 of protein pulled down with 3xMBT; for Relative to UNC0638 UNC Heavy: UNC0638 in heavy SILAC media; for Relative to UNC0638 UNC Light: UNC0638 in light SILAC media; for Relative to UNC0638 Average: average of UNC Light and UNC Heavy experiments.

Test [2] has as its system 3×MBT domain of L3MBTL1. Put plainly: Triple SILAC pull-down, 3xMBT/3xMBTD355N ratio (cytoplasmic, nuclear and chromatin fractions of 293T cells).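 As to all read-outs here: proteins quantified with MaxQuant, requiring at least two unique peptides and quantification in both label directions, normalized to the mean of proteins from a digested loading control.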 As to conditions: SILAC ratio, pull-down 3xMBT vs 3xMBTD355N; for 3xMBT/D355N UNC Heavy: experiment with UNC0638 in heavy SILAC media; for 3xMBT/D355N UNC Light: experiment with UNC0638 in light SILAC media. In kind it is binding, human.

B1: PABPC4 (protein, UniProt Q13310 1-644, looked up)
Polyadenylate-binding protein …: MNAAASSYPMASLYVGDLHSDVTEAMLYEKFSPAGPVLSIRVCRDMITRRSLGYAYVNFQQPADAERALDTMNFDVIKGKPIRIMWSQRDPSLRKSGVGNVFIKNLDKSIDNKALYDTFSAFGNILSCKVVCDENGSKGYAFVHFETQEAADKAIEKMNGMLLNDRKVFVGRFKSRKEREAELGAKAKEFTNVYIKNFGEEVDDESLKELFSQFGKTLSVKVMRDPNGKSKGFGFVSYEKHEDANKAVEEMNGKEISGKIIFVGRAQKKVERQAELKRKFEQLKQERISRYQGVNLYIKNLDDTIDDEKLRKEFSPFGSITSAKVMLEDGRSKGFGFVCFSSPEEATKAVTEMNGRIVGSKPLYVALAQRKEERKAHLTNQYMQRVAGMRALPANAILNQFQPAAGGYFVPAVPQAQGRPPYYTPNQLAQMRPNPRWQQGGRPQGFQGMPSAIRQSGPRPTLRHLAPTGSECPDRLAMDFGGAGAAQQGLTDSCQSGGVPTAVQNLAPRAAVAAAAPRAVAPYKYASSVRSPHPAIQPLQAPQPAVHVQGQEPLTASMLAAAPPQEQKQMLGERLFPLIQTMHSNLAGKITGMLLEIDNSELLHMLESPESLRSKVDEAVAVLQAHHAKKEAAQKVGAVAAATS
As to B1, in test [1], the “Relative to UNC0638 UNC Heavy” value was found to be 0.16 log base 2, the “Relative to UNC0638 UNC Light” value turned out to be 0.17 log base 2 and the “Relative to UNC0638 Average” value is on record as 0.16 log base 2. Also, in test [2], the “3xMBT/D355N UNC Heavy” value is on record as 2.94 log base 2 and the “3xMBT/D355N UNC Light” value turned out to be 3.59 log base 2.

B2: TCOF1 (protein, UniProt Q13428 1-1488, looked up)
Treacle protein: MAEARKRRELLPLIYHHLLRAGYVRAAREVKEQSGQKCFLAQPVTLLDIYTHWQQTSELGRKRKAEEDAALQAKKTRVSDPISTSESSEEEEEAEAETAKATPRLASTNSSVLGADLPSSMKEKAKAETEKAGKTGNSMPHPATGKTVANLLSGKSPRKSAEPSANTTLVSETEEEGSVPAFGAAAKPGMVSAGQADSSSEDTSSSSDETDVEGKPSVKPAQVKASSVSTKESPARKAAPAPGKVGDVTPQVKGGALPPAKRAKKPEEESESSEEGSESEEEAPAGTRSQVKASEKILQVRAASAPAKGTPGKGATPAPPGKAGAVASQTKAGKPEEDSESSSEESSDSEEETPAAKALLQAKASGKTSQVGAASAPAKESPRKGAAPAPPGKTGPAVAKAQAGKREEDSQSSSEESDSEEEAPAQAKPSGKAPQVRAASAPAKESPRKGAAPAPPRKTGPAAAQVQVGKQEEDSRSSSEESDSDREALAAMNAAQVKPLGKSPQVKPASTMGMGPLGKGAGPVPPGKVGPATPSAQVGKWEEDSESSSEESSDSSDGEVPTAVAPAQEKSLGNILQAKPTSSPAKGPPQKAGPVAVQVKAEKPMDNSESSEESSDSADSEEAPAAMTAAQAKPALKIPQTKACPKKTNTTASAKVAPVRVGTQAPRKAGTATSPAGSSPAVAGGTQRPAEDSSSSEESDSEEEKTGLAVTVGQAKSVGKGLQVKAASVPVKGSLGQGTAPVLPGKTGPTVTQVKAEKQEDSESSEEESDSEEAAASPAQVKTSVKKTQAKANPAAARAPSAKGTISAPGKVVTAAAQAKQRSPSKVKPPVRNPQNSTVLARGPASVPSVGKAVATAAQAQTGPEEDSGSSEEESDSEEEAETLAQVKPSGKTHQIRAALAPAKESPRKGAAPTPPGKTGPSAAQAGKQDDSGSSSEESDSDGEAPAAVTSAQVIKPPLIFVDPNRSPAGPAATPAQAQAASTPRKARASESTARSSSSESEDEDVIPATQCLTPGIRTNVVTMPTAHPRIAPKASMAGASSSKESSRISDGKKQEGPATQVSKKNPASLPLTQAALKVLAQKASEAQPPVARTQPSSGVDSAVGTLPATSPQSTSVQAKGTNKLRKPKLPEVQQATKAPESSDDSEDSSDSSSGSEEDGEGPQGAKSAHTLGPTPSRTETLVEETAAESSEDDVVAPSQSLLSGYMTPGLTPANSQASKATPKLDSSPSVSSTLAAKDDPDGKQEAKPQQAAGMLSPKTGGKEAASGTTPQKSRKPKKGAGNPQASTLALQSNITQCLLGQPWPLNEAQVQASVVKVLTELLEQERKKVVDTTKESSRKGWESRKRKLSGDQPAARTPRSKKKKKLGAGEGGEASVSPEKTSTTSKGKAKRDKASGDVKEKKGKGSLGSQGAKDEPEEELQKGMGTVEGGDQSNPKSKKEKKKSDKRKKDKEKKEKKKKAKKASTKDSESPSQKKKKKKKKTAEQTV
As for B2, in test [1], the “Relative to UNC0638 UNC Heavy” value is −0.10 log base 2, the “Relative to UNC0638 UNC Light” value was 0.38 log base 2 and the “Relative to UNC0638 Average” value worked out at 0.14 log base 2. Also, in test [2], the “3xMBT/D355N UNC Heavy” value is 0.67 log base 2 and the “3xMBT/D355N UNC Light” value is reported as 3.27 log base 2.

B3: MTHFD1 (protein, UniProt P11586 1-935, looked up)
C-1-tetrahydrofolate …: MAPAEILNGKEISAQIRARLKNQVTQLKEQVPGFTPRLAILQVGNRDDSNLYINVKLKAAEEIGIKATHIKLPRTTTESEVMKYITSLNEDSTVHGFLVQLPLDSENSINTEEVINAIAPEKDVDGLTSINAGKLARGDLNDCFIPCTPKGCLELIKETGVPIAGRHAVVVGRSKIVGAPMHDLLLWNNATVTTCHSKTAHLDEEVNKGDILVVATGQPEMVKGEWIKPGAIVIDCGINYVPDDKKPNGRKVVGDVAYDEAKERASFITPVPGGVGPMTVAMLMQSTVESAKRFLEKFKPGKWMIQYNNLNLKTPVPSDIDISRSCKPKPIGKLAREIGLLSEEVELYGETKAKVLLSALERLKHRPDGKYVVVTGITPTPLGEGKSTTTIGLVQALGAHLYQNVFACVRQPSQGPTFGIKGGAAGGGYSQVIPMEEFNLHLTGDIHAITAANNLVAAAIDARIFHELTQTDKALFNRLVPSVNGVRRFSDIQIRRLKRLGIEKTDPTTLTDEEINRFARLDIDPETITWQRVLDTNDRFLRKITIGQAPTEKGHTRTAQFDISVASEIMAVLALTTSLEDMRERLGKMVVASSKKGEPVSAEDLGVSGALTVLMKDAIKPNLMQTLEGTPVFVHAGPFANIAHGNSSIIADRIALKLVGPEGFVVTEAGFGADIGMEKFFNIKCRYSGLCPHVVVLVATVRALKMHGGGPTVTAGLPLPKAYIQENLELVEKGFSNLKKQIENARMFGIPVVVAVNAFKTDTESELDLISRLSREHGAFDAVKCTHWAEGGKGALALAQAVQRAAQAPSSFQLLYDLKLPVEDKIRIIAQKIYGADDIELLPEAQHKAEVYTKQGFGNLPICMAKTHLSLSHNPEQKGVPTGFILPIRDIRASVGAGFLYPLVGTMSTMPGLPTRPCFYDIDLDPETEQVNGLF
For B3, in test [1], the “Relative to UNC0638 UNC Heavy” value was 0.05 log base 2, the “Relative to UNC0638 UNC Light” value worked out at 0.23 log base 2 and the “Relative to UNC0638 Average” value came to 0.14 log base 2. In test [2], the “3xMBT/D355N UNC Heavy” value is on record as 1.99 log base 2 and the “3xMBT/D355N UNC Light” value is listed as 2.35 log base 2.
